Here are results for two substances from paper PMC9643438.

The target of one data set is Cys290 (UniProt position 290, QETVDCLKKFN). As to the kind of experiment: chemical modification (iodoacetamide alkylation) with mass spectrometry readout. To be noted: purified, reduced, native CaMKIIdelta; presence of Ca2+/calmodulin not stated.
In the next data set the target is Cys273 (UniProt position 273, KHPWICQRSTV). The data set is described as above. To be noted: purified, reduced, native CaMKIIdelta; presence of Ca2+/calmodulin not stated.

For the substance “Calcium/calmodulin-dependent protein kinase II delta (CaMKIIdelta), 'Cys290' mutant (Homo sapiens; C7S;C273S;C481S)”, the pKa (usually the pH at which an ionisable group is half protonated) with Cys290 stood at 9.7.
Turning to “Calcium/calmodulin-dependent protein kinase II delta (CaMKIIdelta), 'Cys273' mutant (Homo sapiens; C7S;C290S;C481S)”, the pKa with Cys273 was found to be 7.4.
